Assay [1] concerns the target T1, HLA-G signal peptide/HLA-E*0103 complex (ABI-V-0025; …) (human).
T1 construct: also called 0025-E 01:03 monomer complex; V-0025 HLA-E 01:03 monomer complex
In words: label-free (ResoSens), against the Octet value of R4. On the technique in general: BLI is a label-free optical method that tracks binding on a fibre tip over time.
Method: (§1) The method for determining the affinity was as follows. Thermofisher Capture Select™ Biotin anti-IgG-Fc (Hu) (diluted PBS buffer) was immobilized on neutravidin coated Bionetic label-free microarray plate at 5 ug/ml until binding reached equilibrium. Plate subsequently was washed 3× with 0.1% BSA, 0.1% Tween20, PBS dilution/wash buffer. […] Plate was subsequently washed in dilution/wash buffer 3×. V-0025 HLA-E 01:03 monomer complex (serial dilutions starting at 5 ug/ml in dilution/wash buffer) was added to wells and allowed to incubate for 20 minutes to determine the binding association and then immediately followed by dissociation (dilution/wash buffer) for approximately 25 minutes. Binding affinity calculated using Tracedrawer kinetic analysis software.

Assay [2] has as its target T2, V-0025 (…)/HLA-A2 02:01 monomer complex (human).
T2 construct: also called V-0025 on HLA-A2*02:01
In words: ELISA; monomer complex on neutravidin plate. Background: In an ELISA, binding on a coated surface is turned into a signal by an enzyme label.

Assay [3] concerns the target T3, V-0018 (…)/HLA-A2 02:01 monomer complex (human).
T3 construct: also called ABI-V-0018; negative control (V-0018)
In words: ELISA; monomer complex on neutravidin plate.

The target of assay [4] is LL-001 (…)/HLA-E 01:03 monomer complex (human). In words: ELISA; monomer complex on neutravidin plate.
Assay [5] concerns the target LL-002 (…)/HLA-E 01:03 monomer complex (human). In words: ELISA; monomer complex on neutravidin plate.
The target of assay [6] is 0003-A2 (…)/HLA-A2 02:01 monomer complex (human). In words: ELISA; monomer complex on neutravidin plate.
In assay [7] the target is V-0013 (…)/HLA-E 01:03 monomer complex (human). In words: ELISA; monomer complex on neutravidin plate.
Assay [8] addresses 0002-A2 (…)/HLA-A2 02:01 monomer complex (human). In words: ELISA; monomer complex on neutravidin plate.
Assay [9] has as its target V-0038 (…)/HLA-E 01:03 monomer complex (human). In words: ELISA; monomer complex on neutravidin plate.
Assay [10] deals with P-0550 (…)/HLA-E monomer complex (human). In words: ELISA; monomer complex on neutravidin plate.
Assay [11] concerns the target T1, HLA-G signal peptide/HLA-E*0103 complex …. In words: label-free (ResoSens, Resonant Sensors); ABX0020 captured by anti-IgG-Fc, V-0025 HLA-E 01:03 monomer in solution (monovalent).
Method: as §1
Assay [12] has as its target V-0021 (…)/HLA-E 01:03 monomer complex (human). In words: ELISA; monomer complex 0.25 µg/ml on neutravidin plate, antibody 1 µg/ml.
Assay [13] has as its target T1, HLA-G signal peptide/HLA-E*0103 complex …. In words: label-free (ResoSens); V-0025 HLA-E 01:03 monomer on neutravidin plate, ABX0040 in solution.

B1: ABX0020 (antibody, human IgG1, kappa)
heavy: not shown
light: DIQMTQSPSSLSASVGDRVTITCRASQSISSYLNWYQQKPGKAPKLLIYAASSLQSGVPSRFSGSGSGTDFTLTISSLQPEDFATYYCQQSATYWDMFGQGTKVEIKRTVAAPSVFIFPPSDEQLKSGTASVVCLLNNFYPREAKVQWKVDNALQSGNSQESVTEQDSKDSTYSLSSTLTLSKADYEKHKVYACEVTHQGLSSPVTKSFNRGEC
notes: also called R2-A12 hIgG1
Turning to B1, the “fold improvement of KD over the R4 clone” value in [1] is over 200 fold. Also, the binding result is on record as “no binding (tested: antibody 1 µg/ml, antigen 0.25 µg/ml)” in [2]; “no binding (tested: antibody 1 µg/ml, antigen 0.25 µg/ml)” in assay [3]; “no binding (tested: antibody 1 µg/ml, antigen 0.25 µg/ml)” in [4]; “no binding (tested: antibody 1 µg/ml, antigen 0.25 µg/ml)” in assay [5]; “no binding (tested: antibody 1 µg/ml, antigen 0.25 µg/ml)” in assay [6]; “no binding (tested: antibody 1 µg/ml, antigen 0.25 µg/ml)” in assay [7]. The binding result in [8] is “no binding (tested: antibody 1 µg/ml, antigen 0.25 µg/ml)”; in assay [9], “no binding (tested: antibody 1 µg/ml, antigen 0.25 µg/ml)”; in assay [10], “no binding (tested: antibody 1 µg/ml, antigen 0.25 µg/ml)”; in assay [12], “binds”. Besides, in assay [11], the Kd – broadly, a measure of binding affinity in units of concentration – turned out to be 1.87 nM.

B2: ABX0040 (bispecific antibody)
chain 1: not shown
chain 2: B1 light
chain 3: EVQLVESGGGLVQPKGSLKLSCAASGFTFNTYAMNWVRQAPGKGLEWVARIRSKYNNYATYYADSVKDRFTISRDDSQSILYLQMNNLKTEDTAMYYCVRHGNFGNSYVSWFAYWGQGTLVTVSS
chain 4: QAVVTQESALTTSPGETVTLTCRSSTGAVTTSNYANWVQEKPDHLFTGLIGGTNKRAPGVPARFSGSLIGDKAALTITGAQTEDEAIYFCALWYSNLWVFGGGTKLTVL
Regarding B2, in [13], binding was characterised by a dissociation constant (Kd) of 1.57 nM.

These data come from patent publication US20240026007A1 (Boehringer Ingelheim, published 2024).
